Source: US11034736B2, “Anti-viral cnidarins” (priority 2014, dated 2021)

Legend:
[1] = biological target: HIV-1HXB2 gp41 (Human immunodeficiency virus type 1 group M subtype B, UniProt P04578); conditions: ELISA, 100 ng/well gp41
Experimental: (§1) High protein binding Greiner 96-well plates (VWR, Bridgeport, N.J.) were coated with 1 pmol/well of recombinant HIV-1IIIIB gp120 (Immuno Diagnostics, Woburn, Mass.) or recombinant HIV-1HXB2 gp41 (Vybion Inc., Ithaca, N.Y.) at 4° C. overnight. The wells were emptied and then blocked with 200 μl/well of 3% non-fat dry milk (Bio-Rad, Hercules, Calif.) blocking solution for 2 hrs. A control plate was incubated with blocking solution only. After washing three times with PBST, 0.5-log10 serial dilutions of rCNID-1-Trx were added to triplicate wells of gp120−, gp41− and the blocking solution control plate, and the plates were incubated for 2 hrs. The plates were washed with PBST and 100 W/well of a 1:250 dilution of polyclonal rabbit anti-CNID-1 antibody was added and allowed to incubate for 1 hr, followed by three washes with PBST. Goat anti-rabbit (H+L), peroxidase conjugated secondary antibody (Thermo Fisher Scientific Inc., Rockford, Ill.) was added to each well (100 μl/well of a 1:1000 dilution) and further incubated for 1 hr, followed by three washes with PBST. The TMB 2-component Microwell peroxidase substrate kit (KPL Inc., Gaithersburg, Md.) was used for peroxidase detection: 100 W/well, incubation for 5-10 min and the reaction was stopped by addition of 0.5M HCl (100 W/well) before reading the absorbance at 450 nm.

[2] = biological target: HIV-1IIIB gp120 (Human immunodeficiency virus type 1 group M subtype B, UniProt P04578); conditions: ELISA
Experimental: as §1
Briefly, 100 ng/wells of glycosylated recombinant HIV-1IIIB gp120 (Immuno Diagnostics, Woburn, Mass.) or nonglycosylated HIV-1 gp120 (MyBioSource LLC, San Diego, Calif.) was added to the wells of two 96-well plates, and incubated overnight at 4° C. The plates were washed and blocked as previously described. Serial dilutions of rCNID-1-Trx were added (100 W/well); incubation done for 2 hrs. The plates were then washed and visualized using anti-CNID-1 polyclonal antibodies as above.

[3] = tested on: Macrophage; assay: Cell viability of monocyte/macrophage cultures (CellTiter formazan dye reduction); format: cell-based, human; conditions: macrophages
Description: To test the anti-HIV activity of CNID1 against HIV primary isolates in fresh human cells, monocyte-tropic HIV-1 strain Ba-L was obtained from the NIAID AIDS Research and Reference Reagent Program (National Institutes of Health, Bethesda, Md.). The low passage HIV-1 pediatric isolate ROJO was derived as described previously (Buckheit et al., AIDS Res. Hum. Retroviruses, 10: 1497-1506 (1994)). Human peripheral blood mononuclear cells (PBMCs) and macrophages were isolated from hepatitis and HIV seronegative donors following Ficoll-Paque centrifugation as described elsewhere (Gartner & Popovic, Techniques in HIV Research, Aldovini, A. and Walker B., eds., pp. 59-63, Stockton Press, New York, 1990). Antiviral assays were carried out with 3-day-old phytohaemagglutinin/interleukin-2 stimulated PBMCs or 6-day-cultured monocyte/macrophages. […] HIV-1 replication in PBMC (ROJO) or monocyte macrophage (Ba-L) cultures were determined by measurement of reverse transcriptase activity (Buckheit et al., Antiviral Res., 21: 247-265 (1993)) in the supernatants or p24 antigen expression by ELISA (Coulter, Hialeah, Fla.), respectively. Cell viability by formazan dye reduction was determined in replicated cultures using the CellTiter reagent (Promega, Madison, Wis.). […]

B1: CNID-1: HIV-inhibitory protein from soft coral Synthecium sp.; 172 amino acids, 18,122 Da, SEQ ID NO: 1 (protein)
chain: GRATLGQLKTSTIPPVTFDVPFDGANIPQDVRFTIATVNGGKGALYNAELGESAGHTIVLESDGDHPIPGTFDPKSGRGLDYLPRGLVLFSSHNYVGNMKMYTEPDSDITADFPPGTPFGVSSAITGEGSAFQLNTGIDHTGEFEIIPPNTKRNLAGVFDNEIRSVSPTGGK
Binding to gp41 [1]: not gp41
Binding to glycosylated versus non-glycosylated gp120 ([2]; 100 ng/well): bound better to glycosylated gp120 as compared to non-glycosylated gp120
Binding to gp120 ([2]; 100 ng/well gp120): specific binding to viral glycoprotein gp120 in a concentration-dependent manner
CC50 [3]: 3.56 nM
